{
  "source": "paper PMC4370635",
  "about": "“ARF6 Promotes the Formation of Rac1 and WAVE-Dependent Ventral F-Actin Rosettes in Breast Cancer Cells in Response to Epidermal Growth Factor” (PLoS ONE, 2015)",
  "binders": {"B1": {"name": "ARF6T157N (natural protein, UniProt P62330 1-175, looked up)", "chain": "MGKVLSKIFGNKEMRILMLGLDAAGKTTILYKLKLGQSVTTIPTVGFNVETVTYKNVKFNVWDVGGQDKIRPLWRHYYTGTQGLIFVVDCADRDRIDEARQELHRIINDREMRDAIILIFANKQDLPDAMKPHEIQEKLGLTRIRDRNWYVQPSCANSGDGLYEGLTWLTSNYKS", "notes": "ADP-ribosylation factor 6 (ARF6), fast-cycling mutant T157N; also called fast-cycling mutant of ARF6; ARF6T15TN"}},
  "biological_target": "T1, GST fused with the ARF6-binding domain (LZII, leucine zipper II domain) of human JIP3 (aa 371-507) (human, UniProt Q9UPT6 371-507)",
  "T1 construct": "JIP3, human, residues 371-507 (LZII, leucine zipper II domain); also called GST-LZII; LZII domain of human JIP3; source: pGEX construct, purified as described [35]; not shown: GST, N-terminal, kept",
  "T1 sequence (looked up)": "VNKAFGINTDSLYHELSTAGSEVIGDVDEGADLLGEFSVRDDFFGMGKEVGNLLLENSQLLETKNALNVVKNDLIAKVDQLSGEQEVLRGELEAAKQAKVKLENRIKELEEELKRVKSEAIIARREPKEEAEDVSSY",
  "test": "pull-down; GST-LZII (37 ug/reaction) incubated with cleared MDA-MB-231 cell lysates for 15 min at 4°C with 0.5% BSA, then glutathione-Sepharose beads for 1 h at 4°C; lysis buffer 50 mM Tris pH 7.4, 137 mM NaCl, 10 mM MgCl2, 10% glycerol, 1% Triton-X100; bound proteins immunoblotted with anti-ARF6 monoclonal antibody",
  "conditions": "one partner purified",
  "data": [
    {"binder": "B1", "values": [
      {"measurement": "fold increase in GTP-ARF6 pulled down, against parental MDA-MB-231 cells", "result": "~4", "unit": "fold"}
    ]}
  ]
}
